For assay [1], the target named is CD79a (human (endogenous in Raji)) (UniProt P11912). In words: co-IP; antibody to the bait (anti-CD79a, anti-CD79b or anti-IgM) with Protein G agarose beads; Raji membrane fraction solubilised in 1% Triton X-100 lysis buffer in PBS; overnight at 4 °C; bead eluate read by Western blot, band intensities normalised to protein load.
The next assay addresses T1, CD79a (human (endogenous in Raji), UniProt P11912 33-226).
T1 construct: CD79a (Igα), signalling subunit of the B cell receptor, human, endogenous in the Raji B lymphoblastoid cell line; the text prints P11912; also called Igα; Ig-alpha; source: endogenous, Raji cells, membrane fraction solubilised in Triton X-100 or DOC lysis buffer
T1 sequence (looked up): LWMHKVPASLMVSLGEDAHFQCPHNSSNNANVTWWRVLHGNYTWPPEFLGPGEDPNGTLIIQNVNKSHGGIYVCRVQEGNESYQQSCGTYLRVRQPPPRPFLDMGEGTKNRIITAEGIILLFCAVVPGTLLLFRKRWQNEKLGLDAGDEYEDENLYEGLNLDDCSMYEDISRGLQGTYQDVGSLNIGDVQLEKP
Described as above. To be noted: partners not purified.

The results in this text go back to publication PMC11240526, “Method for B Cell Receptor Enrichment in Malignant B Cells” (Cancers, 2024).

With “membrane immunoglobulin M (mIgM) of Raji cells (complex)”, the fold enrichment in the bead eluate over input (band intensity normalised to protein load) in assay [1] is 30 fold.

B1: CD79b (natural protein, human (endogenous in Raji), UniProt P40259 29-229, looked up)
chain: ARSEDRYRNPKGSACSRIWQSPRFIARKRGFTVKMHCYMNSASGNVSWLWKQEMDENPQQLKLEKGRMEESQNESLATLTIQGIRFEDNGIYFCQQKCNNTSEVYQGCGTELRVMGFSTLAQLKQRNTLKDGIIMIQTLLIILFIIVPIFLLLDKDDSKAGMEEDHTYEGLDIDQTATYEDIVTLRTGEVKWSVGEHPGQE
notes: CD79b (Igβ), signalling subunit of the B cell receptor, human, endogenous in the Raji B lymphoblastoid cell line; also called Igβ; Ig-beta; source: endogenous, Raji cells, membrane fraction solubilised in Triton X-100 or DOC lysis buffer
On to B1, for which the “fold enrichment in the bead eluate over input (band intensity normalised to protein load)” value with CD79a is around 12 fold.
